# *1 amine or outer side, *2 acyl side, *3 side chain or, on linkers, in order; H or OH if unused. Primed or numbered codes have the meaning given here. Side-chain parts run from the residue outwards. [ ]: non-standard residue; d: D form. The star is where a group is joined. PEG2DGA = 2-[2-[3-[2-[2-(3-aminopropoxy)ethoxy]ethoxy]propylamino-2-oxo-ethoxy]acetyl; TTDS(3) = O=C(CCC(=O)[*:2])NCCCOCCOCCOCCCN[*:1]; Trp(5-OH) = N[C@@H](Cc1c[nH]c2ccc(O)cc12)C(=O)O; Arg(Me2s) = CN=C(NC)NCCC[C@H](N)C(=O)O; γGlu = O=C(O)[C@H](CCC(=O)[*:2])N[*:1]; Arg(Me) = CNC(=N)NCCC[C@H](N)C(=O)O; Stearoyl = CCCCCCCCCCCCCCCCCC(=O)*; Palmitoyl = CCCCCCCCCCCCCCCC(=O)*; αMeF = C[C@](N)(Cc1ccccc1)C(=O)O; αMeK = C[C@](N)(CCCCN)C(=O)O; Lauroyl = CCCCCCCCCCCC(=O)*; Nle = CCCC[C@H](N)C(=O)O; PEG2′ = PEG2 spacer unit; PEG2″ = not defined here; Aib = CC(C)(N)C(=O)O
# T1: RXFP1 receptor (UniProt Q9HBX9 1-757, limits assumed)
# T1 sequence (looked up): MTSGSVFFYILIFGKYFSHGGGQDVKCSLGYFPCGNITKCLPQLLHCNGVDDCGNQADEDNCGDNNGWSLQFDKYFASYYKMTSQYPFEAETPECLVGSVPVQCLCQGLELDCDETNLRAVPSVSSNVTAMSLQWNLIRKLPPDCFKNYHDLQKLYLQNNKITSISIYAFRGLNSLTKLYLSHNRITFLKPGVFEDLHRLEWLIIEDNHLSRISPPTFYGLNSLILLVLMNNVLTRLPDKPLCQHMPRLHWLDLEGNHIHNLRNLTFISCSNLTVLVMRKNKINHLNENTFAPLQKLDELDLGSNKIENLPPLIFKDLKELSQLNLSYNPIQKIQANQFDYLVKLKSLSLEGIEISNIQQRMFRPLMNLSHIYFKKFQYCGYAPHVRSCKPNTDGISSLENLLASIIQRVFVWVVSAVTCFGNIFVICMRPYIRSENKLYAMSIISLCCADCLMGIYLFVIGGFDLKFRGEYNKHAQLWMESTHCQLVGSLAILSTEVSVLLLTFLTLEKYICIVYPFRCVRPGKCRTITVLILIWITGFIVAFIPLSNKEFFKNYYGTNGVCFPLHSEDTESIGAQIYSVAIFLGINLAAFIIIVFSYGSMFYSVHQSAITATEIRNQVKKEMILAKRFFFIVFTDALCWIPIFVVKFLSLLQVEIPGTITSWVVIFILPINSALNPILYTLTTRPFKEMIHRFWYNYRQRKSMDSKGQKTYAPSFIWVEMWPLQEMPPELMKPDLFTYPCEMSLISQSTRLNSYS
# B1: peptide of SEQ ID NO: 146 (peptide)
# peptide: Ac-LEGREKVRAK(Ac)I[Aib][Aib]EG[Nle]STFS[αMeK]RKK(Ac)[TTDS(3)][TTDS(3)][γGlu][γGlu][γGlu]K([γGlu-Palmitoyl])-NH2
# SMILES: CCCCCCCCCCCCCCCC(=O)N[C@@H](CCC(=O)NCCCC[C@H](NC(=O)CC[C@H](NC(=O)CC[C@H](NC(=O)CC[C@H](NC(=O)CCC(=O)NCCCOCCOCCOCCCNC(=O)CCC(=O)NCCCOCCOCCOCCCNC(=O)[C@H](CCCCNC(C)=O)NC(=O)[C@H](CCCCN)NC(=O)[C@H](CCCNC(=N)N)NC(=O)[C@](C)(CCCCN)NC(=O)[C@H](CO)NC(=O)[C@H](Cc1ccccc1)NC(=O)[C@@H](NC(=O)[C@H](CO)NC(=O)[C@H](CCCC)NC(=O)CNC(=O)[C@H](CCC(=O)O)NC(=O)C(C)(C)NC(=O)C(C)(C)NC(=O)[C@@H](NC(=O)[C@H](CCCCNC(C)=O)NC(=O)[C@H](C)NC(=O)[C@H](CCCNC(=N)N)NC(=O)[C@@H](NC(=O)[C@H](CCCCN)NC(=O)[C@H](CCC(=O)O)NC(=O)[C@H](CCCNC(=N)N)NC(=O)CNC(=O)[C@H](CCC(=O)O)NC(=O)[C@H](CC(C)C)NC(C)=O)C(C)C)[C@@H](C)CC)[C@@H](C)O)C(=O)O)C(=O)O)C(=O)O)C(N)=O)C(=O)O
# B2: peptide of SEQ ID NO: 157 (peptide)
# peptide: Ac-LEGREKVRAK(Ac)I[Aib][Aib]EG[Nle]STFS[αMeK]RAK(Ac)[TTDS(3)][TTDS(3)][γGlu][γGlu][γGlu]K([γGlu-Palmitoyl])-NH2
# SMILES: CCCCCCCCCCCCCCCC(=O)N[C@@H](CCC(=O)NCCCC[C@H](NC(=O)CC[C@H](NC(=O)CC[C@H](NC(=O)CC[C@H](NC(=O)CCC(=O)NCCCOCCOCCOCCCNC(=O)CCC(=O)NCCCOCCOCCOCCCNC(=O)[C@H](CCCCNC(C)=O)NC(=O)[C@H](C)NC(=O)[C@H](CCCNC(=N)N)NC(=O)[C@](C)(CCCCN)NC(=O)[C@H](CO)NC(=O)[C@H](Cc1ccccc1)NC(=O)[C@@H](NC(=O)[C@H](CO)NC(=O)[C@H](CCCC)NC(=O)CNC(=O)[C@H](CCC(=O)O)NC(=O)C(C)(C)NC(=O)C(C)(C)NC(=O)[C@@H](NC(=O)[C@H](CCCCNC(C)=O)NC(=O)[C@H](C)NC(=O)[C@H](CCCNC(=N)N)NC(=O)[C@@H](NC(=O)[C@H](CCCCN)NC(=O)[C@H](CCC(=O)O)NC(=O)[C@H](CCCNC(=N)N)NC(=O)CNC(=O)[C@H](CCC(=O)O)NC(=O)[C@H](CC(C)C)NC(C)=O)C(C)C)[C@@H](C)CC)[C@@H](C)O)C(=O)O)C(=O)O)C(=O)O)C(N)=O)C(=O)O
# B3: peptide of SEQ ID NO: 2 (peptide)
# peptide: Ac-LEGREKVRAQI[Aib][Aib]EG[Nle]STWS[Aib]RKK([γGlu-Palmitoyl])-NH2
# SMILES: CCCCCCCCCCCCCCCC(=O)N[C@@H](CCC(=O)NCCCC[C@H](NC(=O)[C@H](CCCCN)NC(=O)[C@H](CCCNC(=N)N)NC(=O)C(C)(C)NC(=O)[C@H](CO)NC(=O)[C@H](Cc1c[nH]c2ccccc12)NC(=O)[C@@H](NC(=O)[C@H](CO)NC(=O)[C@H](CCCC)NC(=O)CNC(=O)[C@H](CCC(=O)O)NC(=O)C(C)(C)NC(=O)C(C)(C)NC(=O)[C@@H](NC(=O)[C@H](CCC(N)=O)NC(=O)[C@H](C)NC(=O)[C@H](CCCNC(=N)N)NC(=O)[C@@H](NC(=O)[C@H](CCCCN)NC(=O)[C@H](CCC(=O)O)NC(=O)[C@H](CCCNC(=N)N)NC(=O)CNC(=O)[C@H](CCC(=O)O)NC(=O)[C@H](CC(C)C)NC(C)=O)C(C)C)[C@@H](C)CC)[C@@H](C)O)C(N)=O)C(=O)O
# B4: peptide of SEQ ID NO: 160 (peptide)
# peptide: Ac-LEGREKVRAK(Ac)I[Aib][Aib]EG[Nle]STFSXRAK(Ac)[PEG2′][PEG2′][PEG2′][PEG2′][γGlu][γGlu]K([γGlu-γGlu-Palmitoyl])-NH2
# modifications: not fully specified (some residues); printed as Ac-L-E-G-R-E-K-V-R-A-K(Ac)-I-Aib-Aib-E-G-Nle-S-T-F-S-Mly-R-A-K(Ac)-PEG2-PEG2-PEG2-PEG2-gE-gE-K(gE-gE-Palm)-NH2
# B5: peptide of SEQ ID NO: 148 (peptide)
# peptide: Ac-LEGREKVRAK(Ac)I[Aib][Aib]EG[Nle]STWS[Aib][Arg(Me2s)]KK(Ac)K-NH2
# modifications: not fully specified (residue 25); printed as Ac-L-E-G-R-E-K-V-R-A-K(Ac)-I-Aib-Aib-E-G-Nle-S-T-W-S-Aib-Rds-K-K(Ac)-K(PEG2-PEG2-PEG2-gE-gE-gE-Stea)-NH2
# Biological target: T1, RXFP1 receptor
# Assay: cell-based or functional assay
Binder,"EC50 (nM), OVCAR 5 cells (cAMP) [nM]","EMax, OVCAR 5 cells (cAMP) [%]"
B1,0.02,89
B2,0.02,89
Ac-LEGREKVRAK(Ac)I[Aib][Aib]EGQSTFS[αMeK]RAK(Ac)[PEG2′][PEG2′][PEG2′][PEG2′]K([γGlu-γGlu-γGlu-γGlu-Lauroyl])-NH2 [peptide of SEQ ID NO: 161],12.1,94
B3,24,100
Ac-LEGREKVRAK(Ac)I[Aib][Aib]EG[Nle]STFS[αMeK]RAK(Ac)[PEG2″][PEG2″][PEG2″][PEG2″][γGlu][γGlu][γGlu]K([γGlu-Palmitoyl])-NH2 [peptide of SEQ ID NO: 149],0.11,87
Ac-LEGREKVRAK(Ac)I[Aib][Aib]EG[Nle]STFS[αMeK]RAK(Ac)[PEG2″][PEG2″][PEG2″][PEG2″]K([γGlu-γGlu-γGlu-γGlu-Palmitoyl])-NH2 [peptide of SEQ ID NO: 150],0.07,92
Ac-LEGREKVRAK(Ac)I[Aib][Aib]EG[Nle]ST[Trp(5-OH)]S[Aib]RKK(Ac)K([PEG2′-PEG2′-PEG2′-γGlu-γGlu-γGlu-Stearoyl])-NH2 [peptide of SEQ ID NO: 158],0.14,90
Ac-LEGREKVRAK(Ac)I[Aib][Aib]EG[Nle]STWS[Aib]AAK(Ac)K([PEG2′-PEG2′-PEG2′-γGlu-γGlu-γGlu-Stearoyl])-NH2 [peptide of SEQ ID NO: 155],1.17,95
B4,0.28,86
Ac-LEGREKVRAK(Ac)I[Aib][Aib]EG[Nle]STFS[αMeK][Arg(Me)]AK(Ac)[PEG2″][PEG2″][PEG2″][PEG2″][γGlu][γGlu][γGlu]K([γGlu-Palmitoyl])-NH2 [peptide of SEQ ID NO: 151],0.14,90
Ac-LEGREKVRAK(Ac)I[Aib][Aib]EG[Nle]STFS[αMeK]RAK(Ac)K([PEG2′-PEG2′-PEG2′-PEG2′-γGlu-γGlu-γGlu-γGlu-Palmitoyl])-NH2 [peptide of SEQ ID NO: 154],0.4,92
Ac-LEGREKVRAK(Ac)I[Aib][Aib]EG[Nle]ST[αMeF]S[αMeK]RAK(Ac)[PEG2″][PEG2″][PEG2″][PEG2″][γGlu][γGlu][γGlu]K([γGlu-Palmitoyl])-NH2 [peptide of SEQ ID NO: 152],0.04,91
Ac-LEGREKVRAK(Ac)I[Aib][Aib]EG[Nle]STWS[Aib]AAK(Ac)K([PEG2DGA-PEG2DGA-γGlu-γGlu-γGlu-Stearoyl])-NH2 [peptide of SEQ ID NO: 156],0.06,90
Ac-LEGREKVRAK(Ac)I[Aib][Aib]EG[Nle]STFS[Aib]RKK(Ac)K([PEG2′-PEG2′-PEG2′-PEG2′-γGlu-γGlu-γGlu-γGlu-Palmitoyl])-NH2 [peptide of SEQ ID NO: 147],2.14,86
Ac-LEGREKVRAK(Ac)I[Aib][Aib]EG[Nle]STWS[αMeK]RKK(Ac)[PEG2″][PEG2″][PEG2″]K([γGlu-γGlu-γGlu-γGlu-Stearoyl])-NH2 [peptide of SEQ ID NO: 16],0.02,87
B5,0.11,94
Ac-LEGREKVRAK(Ac)I[Aib][Aib]EG[Nle]STFS[αMeK]RKK(Ac)[PEG2″][PEG2″][PEG2″][PEG2″][γGlu][γGlu]K([γGlu-γGlu-Palmitoyl])-NH2 [peptide of SEQ ID NO: 159],0.02,88
Ac-LEGREKVRAK(Ac)I[Aib][Aib]EG[Nle]STFS[Aib]RKK(Ac)K([PEG2′-PEG2′-PEG2′-PEG2′-γGlu-γGlu-γGlu-Palmitoyl])-NH2 [peptide of SEQ ID NO: 153],0.26,89

# Reference: patent publication US20190233493A1 (Sanofi, published 2019)
